Measurements taken from publication PMC7593969.

What was measured:
LMP7-Myc, P28062-2 = assay: co-IP (anti-Flag IP, anti-Myc IB), band intensity quantified; settings: 293T cells cotransfected for 24 h; parent: 100; read off a plot
[1] = biological target: Nef(1 to 115)-(Y115A)-GFP-Flag (HIV-1 (NL4-3)) (UniProt P03406); assay: co-IP; HEK293T cotransfected 24 h with LMP7-Myc and GFP-Flag or Nef(1 to 115)-GFP-Flag constructs; anti-Flag IP; blot with anti-Myc
[2] = biological target: Nef(1 to 115)-(L112A)-GFP-Flag (HIV-1 (NL4-3)) (UniProt P03406); assay: as above
[3] = biological target: Nef(1 to 115)-(L112A/Y115A)-GFP-Flag (HIV-1 (NL4-3)) (UniProt P03406); assay: as above
proLMP7-Flag = proLMP7-Flag (UniProt P28062); assay: co-IP; HEK293T cotransfected 24 h with Nef-HA constructs and LMP7-Flag constructs; RIPA lysates; anti-Flag antibody and protein G-Sepharose at 4°C overnight; blot with anti-HA
LMP7-His (biotinylated) = LMP7-His (biotinylated) (UniProt P28062); assay: BLI; biotinylated LMP7 on streptavidin biosensors; GST or Nef-GST in solution; PBS; 1:1 binding model

LMP7-Myc, P28062-2, sequence (P28062 other isoform, or with tags, fused parts or gaps): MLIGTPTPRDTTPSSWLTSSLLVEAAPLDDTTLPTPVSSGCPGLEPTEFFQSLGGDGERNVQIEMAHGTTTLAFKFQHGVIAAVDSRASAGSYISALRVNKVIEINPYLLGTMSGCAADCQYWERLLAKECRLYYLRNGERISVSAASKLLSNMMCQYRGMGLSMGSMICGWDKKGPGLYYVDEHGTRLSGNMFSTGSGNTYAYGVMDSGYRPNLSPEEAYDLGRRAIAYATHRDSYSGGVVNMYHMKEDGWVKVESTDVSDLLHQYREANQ

| Substance | percent of parent (LMP7-Myc, P28062-2) | further results |
| --- | --- | --- |
| Nef(1 to 115)-GFP-Flag (from UniProt P03406) I114A | 47% | – |
| Nef(1 to 115)-GFP-Flag (from UniProt P03406) D111A | 130% | – |
| LMP7-Myc (from UniProt P28062-2 1-272) (natural protein) | – | relative co-IP band intensity (Nef(1 to 115) = 100%) [1]: 14%; relative co-IP band intensity (Nef(1 to 115) = 100%) [2]: 19%; relative co-IP band intensity (Nef(1 to 115) = 100%) [3]: 1.4% |
| Nef(1 to 115)-GFP-Flag (from UniProt P03406) L110A | 60% | – |
| Nef(1 to 115)-GFP-Flag (from UniProt P03406) I109A | 60% | – |
| Nef(1 to 115)-GFP-Flag (from UniProt P03406) 101-104A | 53% | – |
| Nef(1 to 130)-HA (from UniProt P03406 1-130) (domain or fragment) | – | strength of the interaction (co-IP band) relative to Nef(1 to 115) (proLMP7-Flag): 40 % higher; strength of the interaction (co-IP band) relative to Nef(1 to 149) (proLMP7-Flag): 20 % stronger |
| Nef-GST (from UniProt P03406 1-206) (natural protein) | – | BLI wavelength shift (LMP7-His (biotinylated)): 71.1 pm; Kd (LMP7-His (biotinylated)): 0.735 µM |
| Nef(1 to 115)-GFP-Flag (from UniProt P03406) 105-108A | 120% | – |
| Nef(1 to 115)-GFP-Flag (from UniProt P03406) I109A; L110A; D111A; L112A | 28% | – |
| Nef(1 to 115)-GFP-Flag (from UniProt P03406) W113A; I114A; Y115A | 31% | – |
| Nef(1 to 115)-GFP-Flag (from UniProt P03406) W113A | 97% | – |
